T1: HY5 (LONG HYPOCOTYL 5) (Solanum lycopersicum, UniProt Q9SM50 1-158)
T1 sequence: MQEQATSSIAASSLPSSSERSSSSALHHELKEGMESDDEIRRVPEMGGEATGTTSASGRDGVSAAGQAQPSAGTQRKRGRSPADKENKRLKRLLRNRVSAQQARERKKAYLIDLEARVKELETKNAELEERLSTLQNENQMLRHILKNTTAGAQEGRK

B1: PORC-wt probe (dsDNA)
DNA 1: CAAAATGCAACACGTGATGTATGAAT
DNA 2: ATTCATACATCACGTGTTGCATTTTG
B2: PSY2-wt probe (dsDNA)
DNA 1: CTGTGATTTACACGTGTCCTCTTTAT
DNA 2: ATAAAGAGGACACGTGTAAATCACAG

Molecular target: T1, HY5 (LONG HYPOCOTYL 5)
Assay: EMSA; no GSNO; LightShift Chemiluminescent EMSA Kit, 20 min at room temperature, 6% native polyacrylamide gel; buffer, salt and pH not stated
Conditions: protein: recombinant; tags: His (pET-32a fusion); chain copies: 2; label: biotin 3' end; blunt

| Binder | binding result |
| --- | --- |
| B1 | binds |
| B2 | binds |
